From paper PMC3970815 (Biochemistry, 2014)
Ends that are not written are not given here. fluorescein = fluorescein label, on the N-terminus

Molecular target: T1, fluorescein-labeled consensus propeptide (FpCon)
T1 peptide: fluorescein-AVFLSREQANQVLQRRRR
Test: fluorescence polarisation

B1: Wild-type human gamma-glutamyl carboxylase (GGCX) with a carboxyl-terminal 12-amino acid epitope tag, embedded in DOPC/MSP1D1 nanodiscs (enzyme, UniProt P38435 1-758, looked up)
chain: MAVSAGSARTSPSSDKVQKDKAELISGPRQDSRIGKLLGFEWTDLSSWRRLVTLLNRPTDPASLAVFRFLFGFLMVLDIPQERGLSSLDRKYLDGLDVCRFPLLDALRPLPLDWMYLVYTIMFLGALGMMLGLCYRISCVLFLLPYWYVFLLDKTSWNNHSYLYGLLAFQLTFMDANHYWSVDGLLNAHRRNAHVPLWNYAVLRGQIFIVYFIAGVKKLDADWVEGYSMEYLSRHWLFSPFKLLLSEELTSLLVVHWGGLLLDLSAGFLLFFDVSRSIGLFFVSYFHCMNSQLFSIGMFSYVMLASSPLFCSPEWPRKLVSYCPRRLQQLLPLKAAPQPSVSCVYKRSRGKSGQKPGLRHQLGAAFTLLYLLEQLFLPYSHFLTQGYNNWTNGLYGYSWDMMVHSRSHQHVKITYRDGRTGELGYLNPGVFTQSRRWKDHADMLKQYATCLSRLLPKYNVTEPQIYFDIWVSINDRFQQRIFDPRVDIVQAAWSPFQRTSWVQPLLMDLSPWRAKLQEIKSSLDNHTEVVFIADFPGLHLENFVSEDLGNTSIQLLQGEVTVELVAEQKNQTLREGEKMQLPAGEYHKVYTTSPSPSCYMYVYVNTTELALEQDLAYLQELKEKVENGSETGPLPPELQPLLEGEVKGGPEPTPLVQTFLRRQQRLQEIERRRNTPFHERFFRFLLRKLYVFRRSFLMTCISLRNLILGRPSLEQLAQEVTYANLRPFEAVGELNPSNTDSSHSNPPESNPDPVHSEF
modifications: glycoprotein (glycosylation sites shown in Figure 3); disulfide bond between cysteine 99 and cysteine 450
- stoichiometry N: 1 propeptide per GGCX-nanodisc
